Measurements: PMC5082683

Biological target: Andes virus Gc, wild type (Andes virus strain CHI-7913)
Experiment: sucrose gradient sedimentation

Andes virus Gc, wild type (natural protein)
stoichiometry N: 3
